# Measured values published in PMC5282582.
# Key:
# Experiment in all cases: SEC-MALS; 100 μl of purified protein injected at 12 mg/ml (high concentration); Superdex 200 10/300 GL, room temperature, 10 mM HEPES pH 7.4, 200 mM NaCl, 5 mM β-ME, 0.4 ml/min
# [1] = molecular target: mutant α_(Y126F)β heterodimer of human NAD-dependent isocitrate dehydrogenase (human) (UniProt P50213)
# [2] = molecular target: mutant α_(Y126F)γ heterodimer of human NAD-dependent isocitrate dehydrogenase (human) (UniProt P50213)
# [3] = molecular target: αβ heterodimer of human NAD-dependent isocitrate dehydrogenase (human) (UniProt P50213)
# [4] = molecular target: αγ heterodimer of human NAD-dependent isocitrate dehydrogenase (human) (UniProt P50213)
# αβ heterodimer of human NAD-dependent isocitrate dehydrogenase, sequence (P50213 whole entry, looked up, one chain of several): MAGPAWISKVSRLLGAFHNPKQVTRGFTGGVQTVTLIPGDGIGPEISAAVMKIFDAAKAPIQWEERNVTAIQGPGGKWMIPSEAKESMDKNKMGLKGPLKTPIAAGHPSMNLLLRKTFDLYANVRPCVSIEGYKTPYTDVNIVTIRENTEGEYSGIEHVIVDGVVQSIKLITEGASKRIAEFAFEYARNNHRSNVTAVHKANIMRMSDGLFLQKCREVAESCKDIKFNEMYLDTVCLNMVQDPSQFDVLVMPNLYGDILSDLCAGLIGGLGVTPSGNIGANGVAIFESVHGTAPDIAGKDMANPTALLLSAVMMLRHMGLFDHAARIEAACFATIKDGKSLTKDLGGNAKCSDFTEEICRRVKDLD
# mutant α_(Y126F)β heterodimer of human NAD-dependent isocitrate dehydrogenase, sequence (P50213 whole entry, looked up, stated change not applied, one chain of several): as the sequence (P50213 whole entry, looked up, one chain of several) above
substance,measurement,setting,value
mutant α_(Y126F)β heterodimer of human NAD-dependent isocitrate dehydrogenase (from UniProt P50213 55-366) (complex),stoichiometry N,[1],2
mutant α_(Y126F)γ heterodimer of human NAD-dependent isocitrate dehydrogenase (from UniProt P50213 55-366; P51553 40-393) (complex),stoichiometry N,[2],2
αβ heterodimer of human NAD-dependent isocitrate dehydrogenase (from UniProt P50213 28-366) (complex),stoichiometry N,[3],2
αγ heterodimer of human NAD-dependent isocitrate dehydrogenase (from UniProt P50213 28-366; P51553 40-393) (complex),stoichiometry N,[4],2
